From US20220064329A1 (Novo Nordisk, published 2022) come the findings set out here.

What all share (assay): SPR, ratio of KD to KD of WT
Background: Surface plasmon resonance follows binding to a sensor surface in real time, without labels.

One experiment addresses T1, FVII(a) variant G117A (human, UniProt P08709 61-466).
T1 construct: hFVII alanine variant in cell culture supernatant
T1 sequence: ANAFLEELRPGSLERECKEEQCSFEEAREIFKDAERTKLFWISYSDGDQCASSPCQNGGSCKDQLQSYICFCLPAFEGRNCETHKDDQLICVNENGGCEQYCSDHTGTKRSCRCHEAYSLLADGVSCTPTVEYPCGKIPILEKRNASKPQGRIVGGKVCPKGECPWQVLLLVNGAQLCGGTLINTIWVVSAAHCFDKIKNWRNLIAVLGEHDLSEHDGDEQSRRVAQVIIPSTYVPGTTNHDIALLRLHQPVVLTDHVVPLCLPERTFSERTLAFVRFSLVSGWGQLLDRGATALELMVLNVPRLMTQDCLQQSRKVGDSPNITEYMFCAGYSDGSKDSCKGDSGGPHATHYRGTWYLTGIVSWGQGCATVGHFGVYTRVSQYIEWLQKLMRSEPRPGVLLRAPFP

For another experiment, the target named is T2, FVII(a) variant T185A (human, UniProt P08709 61-466).
T2 construct: hFVII alanine variant in cell culture supernatant
T2 sequence: T1 sequence with A117G, T185A

A further experiment deals with T3, FVII(a) variant V131A (human, UniProt P08709 61-466).
T3 construct: hFVII alanine variant in cell culture supernatant
T3 sequence: T1 sequence with A117G, V131A

Numbering of substitutions follows the chain as printed.

B1: mAb0842(OA) (antibody, human IgG4 S228P, kappa)
heavy: QVQLQESGPGLVKPSQTLSLTCTVSGYSISSDSAWSWIRQPPGKGLEWIGYIQYSGSTNYNPSLKSRVTISRDTSKNQFSLKLSSVTAADTAVYYCARSVNYYGNSFAVGYWGQGTLVTVSSASTKGPSVFPLAPCSRSTSESTAALGCLVKDYFPEPVTVSWNSGALTSGVHTFPAVLQSSGLYSLSSVVTVPSSSLGTKTYTCNVDHKPSNTKVDKRVESKYGPPCPPCPAPEFLGGPSVFLFPPKPKDTLMISRTPEVTCVVVDVSQEDPEVQFNWYVDGVEVHNAKTKPREEQFNSTYRVVSVLTVLHQDWLNGKEYKCKVSNKGLPSSIEKTISKAKGQPREPQVYTLPPSQEEMTKNQVSLSCAVKGFYPSDIAVEWESNGQPENNYKTTPPVLDSDGSFFLVSRLTVDKSRWQEGNVFSCSVMHEALHNHYTQKSLSLSLGK
light: EIVLTQSPATLSLSPGERATLSCRASQGISDYLHWYQQKPGEAPRLLIKYTSQPATGIPARFSGSGSGTDFTLTISSLEPEDFAVYYCQNGHSFPLTFGQGTKLEIKRTVAAPSVFIFPPSDEQLKSGTASVVCLLNNFYPREAKVQWKVDNALQSGNSQESVTEQDSKDSTYSLSSTLTLSKADYEKHKVYACEVTHQGLSSPVTKSFNRGEC
chain: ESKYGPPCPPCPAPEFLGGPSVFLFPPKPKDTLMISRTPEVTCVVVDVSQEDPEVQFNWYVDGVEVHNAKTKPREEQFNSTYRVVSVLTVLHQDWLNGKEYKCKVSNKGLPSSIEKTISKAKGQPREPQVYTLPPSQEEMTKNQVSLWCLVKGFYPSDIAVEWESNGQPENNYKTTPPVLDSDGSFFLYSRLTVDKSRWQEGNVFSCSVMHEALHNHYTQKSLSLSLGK
notes: also called monovalent humanized 11F2 antibody; one-armed anti-FVII(a) antibody
With B1, the figures for the “Fold diff (Variant/WT)” value in the experiment with FVII(a) variant G117A, in the experiment with FVII(a) variant T185A and with FVII(a) variant V131A were 1 fold, 3.3 fold and 17.1 fold, respectively.
